Where a chain is given by its changes, count along the chain named. In names and notes the source's numbering stands.
T1: GST-MTR4-∆N (human, UniProt P42285 75-1042)
T1 construct: Tag is cleavable with 3C protease; kept for the GST pull-downs; also called GST-tagged MTR4∆N; source: E. coli BL21 star (DE3), purified (Ni-NTA, heparin, SEC); not shown: 6xHis-GST, N-terminal, kept
T1 sequence (looked up): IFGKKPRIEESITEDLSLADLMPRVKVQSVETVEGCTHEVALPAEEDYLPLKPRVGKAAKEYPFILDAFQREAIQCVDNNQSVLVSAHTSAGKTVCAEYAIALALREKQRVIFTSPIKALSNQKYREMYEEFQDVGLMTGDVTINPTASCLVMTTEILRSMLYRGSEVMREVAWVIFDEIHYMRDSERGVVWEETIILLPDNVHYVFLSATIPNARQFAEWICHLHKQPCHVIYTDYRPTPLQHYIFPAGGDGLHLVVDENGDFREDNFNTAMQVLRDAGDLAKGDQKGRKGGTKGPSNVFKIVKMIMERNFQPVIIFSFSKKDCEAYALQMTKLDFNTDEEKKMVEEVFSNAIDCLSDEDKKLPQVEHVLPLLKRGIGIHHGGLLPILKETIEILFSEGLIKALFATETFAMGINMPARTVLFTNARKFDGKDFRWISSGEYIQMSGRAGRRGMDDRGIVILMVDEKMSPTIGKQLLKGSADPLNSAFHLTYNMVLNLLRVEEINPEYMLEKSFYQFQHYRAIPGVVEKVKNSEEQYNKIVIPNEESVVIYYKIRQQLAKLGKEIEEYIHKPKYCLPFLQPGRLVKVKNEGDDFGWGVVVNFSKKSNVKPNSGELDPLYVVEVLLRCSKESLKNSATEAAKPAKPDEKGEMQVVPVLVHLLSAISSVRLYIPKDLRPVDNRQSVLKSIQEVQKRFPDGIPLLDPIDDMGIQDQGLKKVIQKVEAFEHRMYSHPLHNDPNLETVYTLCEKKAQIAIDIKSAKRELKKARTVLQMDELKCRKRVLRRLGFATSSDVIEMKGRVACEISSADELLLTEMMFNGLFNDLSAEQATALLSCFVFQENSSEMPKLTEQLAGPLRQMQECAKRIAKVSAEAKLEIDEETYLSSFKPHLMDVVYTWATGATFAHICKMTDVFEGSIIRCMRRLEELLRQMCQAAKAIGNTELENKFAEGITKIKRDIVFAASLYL

T2: MTR4-KOW (human, UniProt P42285 645-787)
T2 construct: human MTR4 KOW domain, residues 645–787; Named without GST in MST, NMR and ITC; the methods say the His-GST tag was cleaved with 3C protease 'when appropriate', so it was probably removed; Isotope-labelled for NMR; also called unlabeled MTR4 KOW; 15N-labelled MTR4-KOW; source: E. coli BL21 star (DE3), purified (Ni-NTA, heparin, SEC); minimal medium with 15N/13C for NMR
T2 sequence (looked up): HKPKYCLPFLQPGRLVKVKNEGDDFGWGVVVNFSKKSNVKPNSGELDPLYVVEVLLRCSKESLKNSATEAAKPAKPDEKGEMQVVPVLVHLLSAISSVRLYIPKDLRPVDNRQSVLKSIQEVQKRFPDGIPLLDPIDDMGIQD

T3: GST-MTR4∆N R743E (human, UniProt P42285 75-1042, R743E)
T3 construct: also called R743E mutant; source: E. coli BL21 star (DE3), purified (Ni-NTA, heparin, SEC); not shown: 6xHis-GST, N-terminal, kept
T3 sequence (looked up): T1 sequence (looked up) with R669E

B1: NVL^167–216 D176A (domain or fragment, human, UniProt O15381 167-216, looked up)
chain: KDSEGGWFIAKTPSVKKDSFFLDLSCEKSNPKKPITEIQDSKDSSLLESD
notes: The methods give Trx-NVL constructs for the NVL pull-downs, so the Trx tag was probably kept; also called D176A mutant; source: E. coli BL21 star (DE3), purified (Ni-NTA, SEC)
B2: Trx-NVL^167–216 F186A D189R (domain or fragment, human, UniProt O15381 167-216, looked up)
chain: B1 chain with A10D, F20A, D23R
notes: also called F186A and D189R mutations in the Nop53-like stretch; source: E. coli BL21 star (DE3), purified (Ni-NTA, SEC); not shown: 6xHis-Trx, N-terminal, kept
B3: MBP-ZCCHC8^91–211-(GS)3-eYFP (domain or fragment, human, UniProt Q6NZY4 91-211, looked up)
chain: DGPILQILFMNNAISKQYHQEIEEFVSNLVKRFEEQQKNDVEKTSFNLLPQPSSIVLEEDHKVEESCAIKNNKEAFSVVGSVLYFTNFCLDKLGQPLLNENPQLSEGWEIPKYHQVFSHIV
notes: also called ZCCHC8-YFP fusion protein; source: E. coli BL21 star (DE3), purified (Ni-NTA, SEC); not shown: 6xHis-MBP, N-terminal, kept; (GS)3-eYFP, C-terminal, kept
B4: MBP-ZCCHC8^91–211 (domain or fragment, human, UniProt Q6NZY4 91-211, looked up)
chain: B3 chain
notes: source: E. coli BL21 star (DE3), purified (Ni-NTA, SEC); not shown: 6xHis-MBP, N-terminal, kept
B5: MBP-ZCCHC8^91–211 F178A/D181R (domain or fragment, human, UniProt Q6NZY4 91-211, looked up)
chain: B3 chain with F88A, D91R
notes: also called F178A/D181R mutant; source: E. coli BL21 star (DE3), purified (Ni-NTA, SEC); not shown: 6xHis-MBP, N-terminal, kept
B6: MBP-ZCCHC8^91–211 W198A/K202E (domain or fragment, human, UniProt Q6NZY4 91-211, looked up)
chain: B3 chain with W108A, K112E
notes: also called W198A/K202E mutant; source: E. coli BL21 star (DE3), purified (Ni-NTA, SEC); not shown: 6xHis-MBP, N-terminal, kept
B7: Trx-NVL^1–266 (domain or fragment, human, UniProt O15381 1-266, looked up)
chain: MKPRPAGFVDNKLKQRVIQYLTSNKCGKYVDIGVLASDLQRVYSIDYGRRKRNAFRIQVEKVFSIISSEKELKNLTELEDEHLAKRARQGEEDNEYTESYSDDDSSMEDYPDPQSANHMNSSLLSLYRKGNPDSVSNTPEMEQRETTSSTPRISSKTGSIPLKTPAKDSEGGWFIDKTPSVKKDSFFLDLSCEKSNPKKPITEIQDSKDSSLLESDMKRKGKLKNKGSKRKKEDLQEVDGEIEAVLQKKAKARGLEFQISNVKFED
notes: also called N-terminal region of human NVL tagged with thioredoxin; source: E. coli BL21 star (DE3), purified (Ni-NTA, SEC); not shown: 6xHis-Trx, N-terminal, kept
B8: GST-MTR4-KOW (domain or fragment, human, UniProt P42285 645-787, looked up)
chain: T2 sequence (looked up)
notes: human MTR4 KOW domain, residues 645–787; also called GST-tagged MTR4 KOW; source: E. coli BL21 star (DE3), purified (Ni-NTA, heparin, SEC); not shown: 6xHis-GST, N-terminal, kept

What was measured:
Details in all cases: both partners purified
[1] = target: T1, GST-MTR4-∆N; test: pull-down; GST-tagged MTR4 constructs as bait, Trx-NVL constructs as prey, glutathione sepharose; 10 μM GST-MTR4∆N with 20 μM Trx-NVL constructs; 50 mM Hepes pH 7.5, 150 mM NaCl, 5% glycerol, 0.05% NP40, 1 mM DTT, 30 min at 4 °C; SDS-PAGE, Coomassie
[2] = target: T2, MTR4-KOW; test: MST; 1 μM MBP-ZCCHC8^91–211-(GS)3-eYFP with a 1:1 dilution series of unlabeled MTR4-KOW; 50 mM Hepes/NaOH pH 7.5, 150 mM NaCl, 5% glycerol, 0.5 mM TCEP; MST power 70%, LED power 15%; triplicates
[3] = target: T3, GST-MTR4∆N R743E; test: pull-down; GST-tagged MTR4 constructs as bait, MBP-ZCCHC8 constructs as prey, glutathione sepharose; 2 μM GST-MTR4∆N with 8 μM MBP-ZCCHC8 constructs; 50 mM Hepes pH 7.5, 150 mM NaCl, 5% glycerol, 0.05% NP40, 1 mM DTT, 30 min at 4 °C; SDS-PAGE, Coomassie
[4] = target: T1, GST-MTR4-∆N; test: as above
[5] = target: B7; test: pull-down; GST-tagged MTR4 constructs as bait, Trx-NVL constructs as prey, glutathione sepharose; 10 μM GST-MTR4∆N with 20 μM Trx-NVL constructs; 50 mM Hepes pH 7.5, 150 mM NaCl, 5% glycerol, 0.05% NP40, 1 mM DTT, 30 min at 4 °C; SDS-PAGE, Coomassie

Binder: B1
binding result [1]: binds

Binder: B2
binding result [1]: binds

Binder: B3
Kd [2]: ~300 nM

Binder: B4
binding result [3]: binds

Binder: B5
binding result [4]: binds

Binder: B6
binding result [4]: binds

Binder: B7
binding result [1]: binds

Binder: B8
binding result [5]: binds

Source: PMC6662825, “The MTR4 helicase recruits nuclear adaptors of the human RNA exosome using distinct arch-interacting motifs” (Nature Communications, 2019)
